Source: publication PMC6572864, “Recombinant production, purification, crystallization, and structure analysis of human transforming growth factor β2 in a new conformation” (Scientific Reports, 2019)

Biological target: the molecule itself
Test: crystal structure; sitting-drop vapor diffusion, 20 °C, 20% isopropanol, 0.2 M calcium chloride, 0.1 M sodium acetate pH 4.6; space group P4(1)2(1)2, 2.0 Å; half a disulfide-linked dimer per asymmetric unit

B1: human transforming growth factor β2, mature growth-factor moiety (GF) (ligand, UniProt P61812 303-414, looked up)
chain: ALDAAYCFRNVQDNCCLRPLYIDFKRDLGWKWIHEPKGYNANFCAGACPYLWSSDTQHSRVLSLYNTINPEASASPCCVSQDLEPLTILYYIGKTPKIEQLSNMIVKSCKCS
notes: human TGFβ2 growth-factor moiety, residues A303-S414 of the precursor (UniProt P61812), 112 residues, released by cleavage at R302-A303; Disulfide-linked homodimer (intermolecular disulfide C379-C379); The crystals came from octahistidine-tagged pro-TGFβ2 mixed with methylamine-induced hα2M; they also grew from pro-TGFβ2 alone; also called mature TGFβ2; TGFβ2 GF; source: purified together with …
stoichiometry N: 2
